What was measured:
[1] = target: C-Mad2* (closed conformation of full-length human R133A Mad2) (human) (UniProt Q13257); experiment: 15N-CEST + 15N-CPMG relaxation dispersion NMR
[2] = target: L5I Mad2* (L5I R133A Mad2) (human, UniProt Q13257 1-205, L5I | R133A); experiment: NMR titration
[3] = target: C-Mad2* (closed conformation of full-length human R133A Mad2) (human, UniProt Q13257 1-205, R133A); experiment: NMR titration
C-Mad2* (closed conformation of full-length human R133A Mad2), sequence (Q13257 whole entry R133A): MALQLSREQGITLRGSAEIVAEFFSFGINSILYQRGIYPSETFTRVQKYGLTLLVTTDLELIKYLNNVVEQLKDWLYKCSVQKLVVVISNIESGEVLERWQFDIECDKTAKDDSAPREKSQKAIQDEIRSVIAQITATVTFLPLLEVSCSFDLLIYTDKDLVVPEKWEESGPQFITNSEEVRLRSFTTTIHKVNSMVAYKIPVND

L5I Mad2* (L5I R133A Mad2), sequence (Q13257 whole entry L5I/R133A): as the sequence (Q13257 whole entry R133A) above, with L5I counted along it

Molecule	Kd [1] [mM]	koff [1] [s⁻¹]	kon [1] [M⁻¹ s⁻¹]	population of the excited state E1 (pE1) at 133 μM [1] [%]	binding result [2]	binding result [3]
C-Mad2* (closed conformation of full-length human R133A Mad2) (from UniProt Q13257 1-205) (natural protein)	3.4	152	44000	3.5		
SWYSYPPPQRAV [Mad2-binding peptide 1 (MBP1)]					binds	binds
